# Laboratory results as given in publication PMC10435522, “Molecular insights into recognition of GUCY2C by T-cell engaging bispecific antibody anti-GUCY2CxCD3” (Scientific Reports, 2023).
# T1: GUCY2C ECD peptide 19 (68-NSGDCRSSTCEGLDLLRKIS-87) (human)
# T1 construct: human GUCY2C residues 68-87; numbers count on: the mature protein (91-110 of P25092); In the crystal the peptide holds the disulfide bond Cys72-Cys77; also called GUCY2C-peptide; 68GUCY2C-peptide87; source: synthetic peptide (New England Peptide arrays for the DELFIA; chemically synthesized for the crystal)
# T1 chain: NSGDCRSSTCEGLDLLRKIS
# B1: anti-GUCY2C single chain Fv (aGUCY2C-scFv) fragment of PF-07062119 (scFv, V domains shown)
# VH: EVQLVESGGGLVQPGGSLRLSCAASGFTFSSYWMHWVRQAPGKGLEWIGEIKPSNELTNVHEKFKDRFTISVDKAKNSAYLQMNSLRAEDTAVYYCTRTITTTEGYWFFDVWGQGTLVTVSS
# VL: DIQLTQSPSSLSASVGDRVTITCRASESVDYYGSSLLQWYQQKPGKAPKLLIYAASKLASGVPSRFSGSGSGTDFTLTISSLQPEDFATYYCQQTRKAYTFGQGTKLEIK
# notes: Fc removed with AcTEV protease; also called anti-GUCY2C-scFv; source: Expi293F, transfected (with kifunensine), purified (MAb Select Sure, Superdex 200 SEC, TEV cleavage); not shown: Fc, C-terminal, cleaved
# B2: GUCY2C-1608 (IgG version of PF-07062119) (antibody, V domains shown)
# VH: B1 VH
# VL: B1 VL
# notes: as the VH in aGUCY2C-scFv; as the VL in aGUCY2C-scFv; IgG detected with an anti-human IgG secondary antibody; also called GUGY2C-1608; Ab GUCY2C-1608
# Target: T2, human GUCY2C ECD, purified (from HuGUCY2C_ECD_TEV_muIgG2amutFc_Flag) (human, UniProt P25092)
# T2 construct: human GUCY2C extracellular domain, residues 1-407; numbers count on: the mature protein (24-430 of P25092); For the crystal the complex with the scFv was treated with endoglycosidase H. The limits 1-407 are stated for the crystallised ECD; also called full GUCY2C ECD; full length GUCY2C-ECD; source: Expi293F, transfected (with kifunensine), purified (MAb Select Sure, Superdex 200 SEC, TEV …)
# Experiment: crystal structure; aGUCY2C-scFv with GUCY2C-ECD (1-407), mixed at 1.2:1, treated with endoglycosidase H, purified by SEC; 3.52 A; one complex in the asymmetric unit
# Conditions: both partners purified
# T2 sequence (P25092 24-407): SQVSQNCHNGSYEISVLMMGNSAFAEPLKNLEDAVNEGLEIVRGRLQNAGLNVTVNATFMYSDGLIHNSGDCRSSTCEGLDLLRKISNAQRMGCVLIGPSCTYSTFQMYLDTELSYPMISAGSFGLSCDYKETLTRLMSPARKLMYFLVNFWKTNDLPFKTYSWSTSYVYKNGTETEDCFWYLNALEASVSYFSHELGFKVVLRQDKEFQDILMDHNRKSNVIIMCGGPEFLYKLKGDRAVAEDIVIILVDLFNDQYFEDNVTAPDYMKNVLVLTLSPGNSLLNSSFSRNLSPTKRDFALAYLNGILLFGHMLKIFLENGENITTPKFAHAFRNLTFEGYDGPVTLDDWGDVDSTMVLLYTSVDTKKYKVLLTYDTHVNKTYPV
row,binding result,Molecule
1,binds,B1

# Target: PF-07062119, anti-GUCY2CxCD3 bispecific antibody
# Experiment: flow cytometry of yeast-displayed GUCY2C ECD
# Conditions: 2 independent experiments, triplicate samples; parent: est. 36; read off a plot
row,Molecule,response
1,human GUCY2C ECD displayed on yeast (CID1814) (from UniProt P25092) D81E,33
2,human GUCY2C ECD displayed on yeast (CID1814) (from UniProt P25092) I66L,34
3,human GUCY2C ECD displayed on yeast (CID1814) (from UniProt P25092) K85Q,50
4,human GUCY2C ECD displayed on yeast (CID1814) (from UniProt P25092) L83I,28
5,human GUCY2C ECD displayed on yeast (CID1814) (from UniProt P25092) R84K,48
6,human GUCY2C ECD displayed on yeast (CID1814) (from UniProt P25092) S15N,21
7,human GUCY2C ECD displayed on yeast (CID1814) (from UniProt P25092) S62F,30
8,human GUCY2C ECD displayed on yeast (CID1814) (from UniProt P25092) S74T,41
9,human GUCY2C ECD displayed on yeast (CID1814) (from UniProt P25092) S87F,32

# Same assay, conditions: 2 independent experiments, triplicate samples; parent: est. 130; read off a plot
row,response,Molecule
1,110,human GUCY2C ECD displayed on yeast (CID1814) (from UniProt P25092) A331E; L335I
2,43,human GUCY2C ECD displayed on yeast (CID1814) (from UniProt P25092) N21D; A23D; D71G
3,220,human GUCY2C ECD displayed on yeast (CID1814) (from UniProt P25092) Q210R; E230A; D238T; E259R
4,96,human GUCY2C ECD displayed on yeast (CID1814) (from UniProt P25092) S163T; G403S
5,97,human GUCY2C ECD displayed on yeast (CID1814) (from UniProt P25092) Y109V; T133N
6,37,human GUCY2C ECD displayed on yeast (CID1814) (from UniProt P25092) human 153-166 substituted with chicken residues 151-164
7,140,human GUCY2C ECD displayed on yeast (CID1814) (from UniProt P25092) human 172-178 substituted with chicken residues 170-176
8,160,human GUCY2C ECD displayed on yeast (CID1814) (from UniProt P25092) human 198-206 substituted with chicken residues 196-204
9,150,human GUCY2C ECD displayed on yeast (CID1814) (from UniProt P25092) human 207-217 substituted with chicken residues 205-215
10,110,human GUCY2C ECD displayed on yeast (CID1814) (from UniProt P25092) human 238-243 substituted with chicken residues 236-241
11,80,human GUCY2C ECD displayed on yeast (CID1814) (from UniProt P25092) human 259-269 substituted with chicken residues 257-267
12,65,human GUCY2C ECD displayed on yeast (CID1814) (from UniProt P25092) human 363-376 substituted with chicken residues 361-374

# Same assay, conditions: 2 independent experiments, triplicate samples; read off a plot
row,Molecule,response
1,chicken GUCY2C ECD displayed on yeast (CID1818) (from UniProt E1BZE2) chicken residues 70-84 replaced by human 73-87,11
2,chicken GUCY2C ECD displayed on yeast (CID1818) (from UniProt E1BZE2) chicken residues 71-89 replaced by human 74-92,14

# Target: T2, human GUCY2C ECD, purified (from …)
# Experiment: ELISA; DELFIA competition ELISA; human GUCY2C ECD coated at 1 ug/ml; GUCY2C-1608 at EC80 mixed with peptide 19 serially diluted 1:3 from 10 ug/ml; anti-human IgG europium detection
# Conditions: both partners purified
row,binding result,Molecule
1,binds,B2

# Target: T1, GUCY2C ECD peptide 19 …
# Experiment: as above
# Conditions: both partners purified
row,binding result,Molecule
1,binds,B2

# Target: T1, GUCY2C ECD peptide 19 …
# Experiment: crystal structure; aGUCY2C-scFv with GUCY2C-peptide 68-87, complex formed at 1:1.2 molar ratio; 1.6 A; two complexes in the asymmetric unit
# Conditions: both partners purified
row,binding result,Molecule
1,binds,B1
